Test [1] deals with PTCH1_(ECD2), biotinylated (BLI) (human, UniProt Q13635, biotin on the BirA-recognition sequence). The experiment in a line: BLI.
Test [2] addresses PTCH1_(ECD1), biotinylated (BLI) (human, UniProt Q13635, biotin on the BirA-recognition sequence). The experiment in a line: BLI. In general terms: BLI is a label-free optical method that tracks binding on a fibre tip over time.

Chain of PTCH1_(ECD2), biotinylated (BLI) (Q13635 772-1023): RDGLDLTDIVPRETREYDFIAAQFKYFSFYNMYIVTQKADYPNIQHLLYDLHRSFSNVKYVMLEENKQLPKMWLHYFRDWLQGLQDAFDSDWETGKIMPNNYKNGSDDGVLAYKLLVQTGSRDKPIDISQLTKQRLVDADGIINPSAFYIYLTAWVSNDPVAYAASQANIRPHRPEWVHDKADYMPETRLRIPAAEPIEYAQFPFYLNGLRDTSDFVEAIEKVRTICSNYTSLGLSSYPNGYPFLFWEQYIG
Chain of PTCH1_(ECD1), biotinylated (BLI) (Q13635 139-428): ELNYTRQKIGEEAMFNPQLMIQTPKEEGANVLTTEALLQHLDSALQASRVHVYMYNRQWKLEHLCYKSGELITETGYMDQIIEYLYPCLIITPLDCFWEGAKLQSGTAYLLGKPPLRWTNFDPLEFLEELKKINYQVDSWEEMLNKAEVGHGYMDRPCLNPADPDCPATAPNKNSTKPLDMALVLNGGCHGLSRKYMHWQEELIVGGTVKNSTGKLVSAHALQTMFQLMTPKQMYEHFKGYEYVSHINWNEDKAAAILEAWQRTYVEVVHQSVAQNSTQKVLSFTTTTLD

B1: NB75 (VHH)
VHH: QVQLQESGGGLVQAGDSLTLSCAASGRTFSSYTMGWFRQAPGKERDFIAGITSTGSSTYYADSVKGRFTISRDNAKNTVYLQMNSLKPEDTADYYCARKVAGGSYYQKDKYDYWGQGTQVTVSS
Consider B1, for which the binding result in test [1] is reported as “binds”.

B2: NB64 (VHH)
VHH: QVQLQESGGGLVQPGGSLRLSCAASGSGNSINVMGWYRQAPGKPRELVAEITSSGTTNYADSVKGRFSISRDNAKNTVPLQMNSLKPEDTAIYYCSAVLVRFGGLRRSYWGQGTQVTVSS
On to B2, for which, in test [2], the binding result is given as “binds”.

Source of the values: article PMC6764859 (Nature chemical biology, 2019).
